What is called EC50 is the concentration at which the effect is half-maximal. Read a low EC50 as higher potency in that assay.

Consider three molecules from patent US20220098307A1 (WUHAN YZY BIOPHARMA, published 2022).

Experiment [1] concerns the target T1, Human CD3ε (human, UniProt P07766 23-126).
T1 construct: CD3 on T cells isolated from human whole blood
In words: flow cytometry, human T cells. Put shortly:
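For cell-surface binding, T cells served for the CD3 arm and antigen-positive tumor cells (e.g. MM.1S or RPMI 8226 for CD38) for the tumor arm.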
(In general: In flow cytometry, cells or beads pass a laser one at a time.)

For experiment [2], the target named is T2, human CEA (human, UniProt P06731 35-685).
T2 sequence: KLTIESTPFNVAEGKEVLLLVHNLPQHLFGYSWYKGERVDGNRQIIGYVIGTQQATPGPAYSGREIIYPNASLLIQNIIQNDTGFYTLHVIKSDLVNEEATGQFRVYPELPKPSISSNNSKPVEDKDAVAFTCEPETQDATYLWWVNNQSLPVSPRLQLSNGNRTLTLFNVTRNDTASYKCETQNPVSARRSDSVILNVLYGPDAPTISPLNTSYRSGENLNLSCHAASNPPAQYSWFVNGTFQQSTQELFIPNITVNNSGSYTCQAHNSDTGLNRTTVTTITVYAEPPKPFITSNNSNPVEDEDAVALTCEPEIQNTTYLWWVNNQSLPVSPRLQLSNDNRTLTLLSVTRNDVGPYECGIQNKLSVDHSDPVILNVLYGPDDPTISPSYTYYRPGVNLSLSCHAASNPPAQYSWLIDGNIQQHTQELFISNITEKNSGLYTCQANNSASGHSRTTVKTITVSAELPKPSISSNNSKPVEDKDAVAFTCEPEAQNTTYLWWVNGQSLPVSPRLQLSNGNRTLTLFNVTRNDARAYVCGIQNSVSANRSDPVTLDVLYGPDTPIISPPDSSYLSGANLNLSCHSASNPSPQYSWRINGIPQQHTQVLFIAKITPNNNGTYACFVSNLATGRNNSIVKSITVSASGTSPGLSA
In words: flow cytometry, human tumor cells (table of the CEA series). From the text:
1) Cell preparation: T cells isolated from CD3-positive human whole blood were used for a CD3 end affinity detection of multifunctional antibody molecule; positive tumor cells of corresponding antigen were used for detecting affinity of tumor antigen; for example, CD38-positive MM. 1S cells (purchased from the Cell Resource Center of Shanghai Institutes for Biological Sciences, Chinese Academy of Sciences) or RPMI 8226 cells (purchased from the Cell Resource Center of Shanghai Institutes for Biological Sciences, Chinese Academy of Sciences) were used for CD38 antigen detection, and PD-L1 positive H358 cells (purchased from the Cell Resource Center of Shanghai Institutes for Biological Sciences, Chinese Academy of Sciences) were used for PD-L1 antigen detection, and so on. The cells were resuspended with 1% FBS-PBS, adjusted to a density of 4×10⁶/ml, and 50 μl of cells were taken from each well, and then plated at 2×10⁵ per well. Cell plating was operated on ice
2) Addition of the antibody: according to the experimental design, the antibody was diluted gradually, and dilution of antibody was operated on ice. For example, the initial concentration of antibody for dilution was 3000 nM, and the antibody was diluted by 3 times with 11 concentration gradients. The diluted antibody was added to a cell well at 50 μl per well, mixed well, and shaked and incubated at 4° C. 1100 rpm/min for 2 h; after washing, the cells were resuspend in 1% FBS-PBS, and a diluted secondary antibody PE anti-human IgG FC (Biolegend, 409304) was added with a final concentration of 8 ug/ml and a volume of 50 μl/well. At the same time, a well only added with cells and secondary antibody was set as a control, the components were mixed well, and incubated under shaking at 1100 rpm/min at 4° C. for 1 h;
5) Data analysis: the data was analyzed by a flow analysis software FlowJo 7.6 thereby obtaining an average fluorescence intensity of the specific antibody concentration, plotted by a Graphpad Prism 5 with the antibody concentration (nM) as an abscissa and the average fluorescence intensity as an ordinate; the EC50 value was calculated by the method of One site—Specific binding, and the EC50 value indicated the cell affinity of the antibody to the corresponding target antigen.

B1: M3IC-DG2D (bispecific antibody)
chain 1: EVKLDETGGGLVQPGRPMKLSCVASGFTFSDYWMNWVRQSPEKGLEWVAQIRNKPYNYETYYSDSVKGRFTISRDDSKSSVYLQMNNLRVEDMGIYYCTGSYYGMDYWGQGTSVTVSSASTKGPSVFPLAPSSKSTSGGTAALGCLVKDYFPEPVTVSWNSGALTSGVHTFPAVLQSSGLYSLSSVVTVPSSSLGTQTYICNVNHKPSNTKVDKKVEPKSCGGGGSGGGGSQVQLVESGGGVVQPGRSLRLSCAASGFTFSTYAMNWVRQAPGKGLEWVARIRSKYNNYATYYADSVKDRFTISRDDSKNTLYLQMNSLRAEDTAVYYCARHGNFGNSYVSWFAYWGQGTLVTVSSASVAAPSVFIFPPSDEQLKSGTASVVCLLNNFYPREAKVQWKVDNALQSGNSQESVTEQDSKDSTYSLSSTLTLSKADYEKHKVYACEVTHQGLSSPVTKSFNRGECDKTHTCPPCPAPPVAGPSVFLFPPKPKDTLMISRTPEVTCVVVAVSHEAPEVQFNWYVDGVEVHNAKTKPREEQFNSTFRVVSVLTVVHQDWLNGKEYKCKVSNKGLPAPIEKTISKTKGQPREPQVYTLPPCRDELTKNQVSLWCLVKGFYPSDIAVEWESNGQPENNYKTTPPVLDSDGSFFLYSKLTVDKSRWQQGNVFSCSVMHEALHNHYTQKSLSLSPGK
chain 2: QTVVTQEPSLTVSPGGTVTLTCRSSTGAVTTSNYANWVQQKPGQAPRGLIGGTNKRAPGVPARFSGSLLGGKAALTLSGVQPEDEAEYYCALWYSNLWVFGGGTKVEIKSSASTKGPSVFPLAPSSKSTSGGTAALGCLVKDYFPEPVTVSWNSGALTSGVHTFPAVLQSSGLYSLSSVVTVPSSSLGTQTYICNVNHKPSNTKVDKKVEPKSC
heavy: EVKLDETGGGLVQPGRPMKLSCVASGFTFSDYWMNWVRQSPEKGLEWVAQIRNKPYNYETYYSDSVKGRFTISRDDSKSSVYLQMNNLRVEDMGIYYCTGSYYGMDYWGQGTSVTVSSASTKGPSVFPLAPSSKSTSGGTAALGCLVKDYFPEPVTVSWNSGALTSGVHTFPAVLQSSGLYSLSSVVTVPSSSLGTQTYICNVNHKPSNTKVDKKVEPKSCDKTHTCPPCPAPPVAGPSVFLFPPKPKDTLMISRTPEVTCVVVAVSHEAPEVQFNWYVDGVEVHNAKTKPREEQFNSTFRVVSVLTVVHQDWLNGKEYKCKVSNKGLPAPIEKTISKTKGQPREPQVCTLPPSRDELTKNQVSLSCAVKGFYPSDIAVEWESNGQPENNYKTTPPVLDSDGSFFLVSKLTVDKSRWQQGNVFSCSVMHEALHNRFTQKSLSLSPGK
light: DVVMTQTPLSLPVSLGDQASISCRSSQSLVHSNGNTYLRWYLQKPGQSPKVLIYKVSNRFSGVPDRFSGSGSGTDFTLKISRVEAEDLGVYFCSQSTHVPWTFGGGTKLEIKRTVAAPSVFIFPPSDEQLKSGTASVVCLLNNFYPREAKVQWKVDNALQSGNSQESVTEQDSKDSTYSLSSTLTLSKADYEKHKVYACEVTHQGLSSPVTKSFNRGEC
notes: structure 3 isotype control; CH2 DG2DCH2
Molecule B1 yielded an EC50 in experiment [1] of 638 nM. Moreover, the binding result in experiment [2] was “no binding”.

B2: M3IC-GG2 (bispecific antibody)
chain 1: EVKLDETGGGLVQPGRPMKLSCVASGFTFSDYWMNWVRQSPEKGLEWVAQIRNKPYNYETYYSDSVKGRFTISRDDSKSSVYLQMNNLRVEDMGIYYCTGSYYGMDYWGQGTSVTVSSASTKGPSVFPLAPSSKSTSGGTAALGCLVKDYFPEPVTVSWNSGALTSGVHTFPAVLQSSGLYSLSSVVTVPSSSLGTQTYICNVNHKPSNTKVDKKVEPKSCGGGGSGGGGSQVQLVESGGGVVQPGRSLRLSCAASGFTFSTYAMNWVRQAPGKGLEWVARIRSKYNNYATYYADSVKDRFTISRDDSKNTLYLQMNSLRAEDTAVYYCARHGNFGNSYVSWFAYWGQGTLVTVSSASVAAPSVFIFPPSDEQLKSGTASVVCLLNNFYPREAKVQWKVDNALQSGNSQESVTEQDSKDSTYSLSSTLTLSKADYEKHKVYACEVTHQGLSSPVTKSFNRGECDKTHTCPPGPAPPVAGPSVFLFPPKPKDTLMISRTPEVTCVVVDVSHEDPEVQFNWYVDGVEVHNAKTKPREEQFNSTFRVVSVLTVVHQDWLNGKEYKCKVSNKGLPAPIEKTISKTKGQPREPQVYTLPPCRDELTKNQVSLWCLVKGFYPSDIAVEWESNGQPENNYKTTPPVLDSDGSFFLYSKLTVDKSRWQQGNVFSCSVMHEALHNHYTQKSLSLSPGK
chain 2: QTVVTQEPSLTVSPGGTVTLTCRSSTGAVTTSNYANWVQQKPGQAPRGLIGGTNKRAPGVPARFSGSLLGGKAALTLSGVQPEDEAEYYCALWYSNLWVFGGGTKVEIKSSASTKGPSVFPLAPSSKSTSGGTAALGCLVKDYFPEPVTVSWNSGALTSGVHTFPAVLQSSGLYSLSSVVTVPSSSLGTQTYICNVNHKPSNTKVDKKVEPKSC
heavy: EVKLDETGGGLVQPGRPMKLSCVASGFTFSDYWMNWVRQSPEKGLEWVAQIRNKPYNYETYYSDSVKGRFTISRDDSKSSVYLQMNNLRVEDMGIYYCTGSYYGMDYWGQGTSVTVSSASTKGPSVFPLAPSSKSTSGGTAALGCLVKDYFPEPVTVSWNSGALTSGVHTFPAVLQSSGLYSLSSVVTVPSSSLGTQTYICNVNHKPSNTKVDKKVEPKSCDKTHTCPPGPAPPVAGPSVFLFPPKPKDTLMISRTPEVTCVVVDVSHEDPEVQFNWYVDGVEVHNAKTKPREEQFNSTFRVVSVLTVVHQDWLNGKEYKCKVSNKGLPAPIEKTISKTKGQPREPQVCTLPPSRDELTKNQVSLSCAVKGFYPSDIAVEWESNGQPENNYKTTPPVLDSDGSFFLVSKLTVDKSRWQQGNVFSCSVMHEALHNRFTQKSLSLSPGK
light: DVVMTQTPLSLPVSLGDQASISCRSSQSLVHSNGNTYLRWYLQKPGQSPKVLIYKVSNRFSGVPDRFSGSGSGTDFTLKISRVEAEDLGVYFCSQSTHVPWTFGGGTKLEIKRTVAAPSVFIFPPSDEQLKSGTASVVCLLNNFYPREAKVQWKVDNALQSGNSQESVTEQDSKDSTYSLSSTLTLSKADYEKHKVYACEVTHQGLSSPVTKSFNRGEC
notes: structure 3 isotype control; CH2 GG2CH2
In turn, B2 had an EC50 in experiment [1] of 609 nM. Moreover, the binding result in experiment [2] was “no binding”.

B3: M3IC-G2D (bispecific antibody)
chain 1: EVKLDETGGGLVQPGRPMKLSCVASGFTFSDYWMNWVRQSPEKGLEWVAQIRNKPYNYETYYSDSVKGRFTISRDDSKSSVYLQMNNLRVEDMGIYYCTGSYYGMDYWGQGTSVTVSSASTKGPSVFPLAPSSKSTSGGTAALGCLVKDYFPEPVTVSWNSGALTSGVHTFPAVLQSSGLYSLSSVVTVPSSSLGTQTYICNVNHKPSNTKVDKKVEPKSCGGGGSGGGGSQVQLVESGGGVVQPGRSLRLSCAASGFTFSTYAMNWVRQAPGKGLEWVARIRSKYNNYATYYADSVKDRFTISRDDSKNTLYLQMNSLRAEDTAVYYCARHGNFGNSYVSWFAYWGQGTLVTVSSASVAAPSVFIFPPSDEQLKSGTASVVCLLNNFYPREAKVQWKVDNALQSGNSQESVTEQDSKDSTYSLSSTLTLSKADYEKHKVYACEVTHQGLSSPVTKSFNRGECDKTHTCPPCPAPPVAGPSVFLFPPKPKDTLMISRTPEVTCVVVDVSHEAPEVQFNWYVDGVEVHNAKTKPREEQFNSTFRVVSVLTVVHQDWLNGKEYKCKVSNKGLPAPIEKTISKTKGQPREPQVYTLPPCRDELTKNQVSLWCLVKGFYPSDIAVEWESNGQPENNYKTTPPVLDSDGSFFLYSKLTVDKSRWQQGNVFSCSVMHEALHNHYTQKSLSLSPGK
chain 2: QTVVTQEPSLTVSPGGTVTLTCRSSTGAVTTSNYANWVQQKPGQAPRGLIGGTNKRAPGVPARFSGSLLGGKAALTLSGVQPEDEAEYYCALWYSNLWVFGGGTKVEIKSSASTKGPSVFPLAPSSKSTSGGTAALGCLVKDYFPEPVTVSWNSGALTSGVHTFPAVLQSSGLYSLSSVVTVPSSSLGTQTYICNVNHKPSNTKVDKKVEPKSC
heavy: EVKLDETGGGLVQPGRPMKLSCVASGFTFSDYWMNWVRQSPEKGLEWVAQIRNKPYNYETYYSDSVKGRFTISRDDSKSSVYLQMNNLRVEDMGIYYCTGSYYGMDYWGQGTSVTVSSASTKGPSVFPLAPSSKSTSGGTAALGCLVKDYFPEPVTVSWNSGALTSGVHTFPAVLQSSGLYSLSSVVTVPSSSLGTQTYICNVNHKPSNTKVDKKVEPKSCDKTHTCPPCPAPPVAGPSVFLFPPKPKDTLMISRTPEVTCVVVDVSHEAPEVQFNWYVDGVEVHNAKTKPREEQFNSTFRVVSVLTVVHQDWLNGKEYKCKVSNKGLPAPIEKTISKTKGQPREPQVCTLPPSRDELTKNQVSLSCAVKGFYPSDIAVEWESNGQPENNYKTTPPVLDSDGSFFLVSKLTVDKSRWQQGNVFSCSVMHEALHNRFTQKSLSLSPGK
light: DVVMTQTPLSLPVSLGDQASISCRSSQSLVHSNGNTYLRWYLQKPGQSPKVLIYKVSNRFSGVPDRFSGSGSGTDFTLKISRVEAEDLGVYFCSQSTHVPWTFGGGTKLEIKRTVAAPSVFIFPPSDEQLKSGTASVVCLLNNFYPREAKVQWKVDNALQSGNSQESVTEQDSKDSTYSLSSTLTLSKADYEKHKVYACEVTHQGLSSPVTKSFNRGEC
notes: structure 3 isotype control; CH2 G2DCH2
In turn, B3 had an EC50 in experiment [1] of 607 nM. Further, in experiment [2], the binding result was “no binding”.
